According to article PMC5028900:

How the values were obtained:
[1] = target: GST-MeCP2 AT-hook 2 (UniProt P51608); assay: competition EMSA; conditions: 0.8 ug poly(dA-dT) against N1 probe; EMSA: 10 mM Tris-HCl pH 7.5, 50 mM KCl, 0.5 mM MgCl2, 0.1 mM EDTA, 0.1 mg/mL BSA, 5% glycerol; 0.5 ng probe in 20 uL; 30 min on ice; native 6% acrylamide gel
[2] = target: GST-MeCP2 AT-hook 1 (UniProt P51608); assay: competition EMSA; conditions: 0.8 ug poly(dA-dT) against N1 probe; EMSA: 10 mM Tris-HCl pH 7.5, 50 mM KCl, 0.5 mM MgCl2, 0.1 mM EDTA, 0.1 mg/mL BSA, 5% glycerol; 0.5 ng probe in 20 uL; 30 min on ice; native 6% acrylamide gel

Chain of UniProt P51608 (P51608 whole entry): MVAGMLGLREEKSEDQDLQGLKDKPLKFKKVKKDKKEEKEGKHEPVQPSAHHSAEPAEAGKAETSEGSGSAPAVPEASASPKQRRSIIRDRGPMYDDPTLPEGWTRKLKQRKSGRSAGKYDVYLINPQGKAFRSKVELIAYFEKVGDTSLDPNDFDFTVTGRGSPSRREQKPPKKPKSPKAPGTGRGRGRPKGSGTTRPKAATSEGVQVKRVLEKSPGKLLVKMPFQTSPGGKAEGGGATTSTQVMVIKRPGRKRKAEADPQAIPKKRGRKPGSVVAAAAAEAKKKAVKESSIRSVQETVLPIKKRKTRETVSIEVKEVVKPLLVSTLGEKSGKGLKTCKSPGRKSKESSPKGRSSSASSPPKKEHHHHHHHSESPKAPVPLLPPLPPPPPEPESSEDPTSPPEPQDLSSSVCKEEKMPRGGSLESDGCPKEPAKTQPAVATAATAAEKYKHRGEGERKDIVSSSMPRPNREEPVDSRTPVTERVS

Substance: poly(dA-dT)
- binding signal (% of bound probe displaced) [1]: 20
- binding signal (% of bound probe displaced) [2]: 67
